Data published in PMC8748612, “Maximizing response to intratumoral immunotherapy in mice by tuning local retention” (Nature Communications, 2022).
Read-outs that look alike come from different tables or passages of the source.

Columns and labels:
collagen type I = target: T1, collagen type I (UniProt P02454 152-1207; P02466 86-1125); assay: ELISA; Collagen I (Gibco) coated 96-well plates; LAIR-MSA fusion proteins in PBSTA for 4 h at room temperature; detected with HRP-conjugated anti-6xHis; mean, n = 2
T1 construct: collagen type I, alpha-1 chain; collagen type I, alpha-2 chain; two alpha-1 chains and one alpha-2 chain, and rat as the source, are surmised; also called Collagen I (Gibco); native collagen; source: bought: Gibco
T1 sequence (P02454 152-1207, chain 1 of 2): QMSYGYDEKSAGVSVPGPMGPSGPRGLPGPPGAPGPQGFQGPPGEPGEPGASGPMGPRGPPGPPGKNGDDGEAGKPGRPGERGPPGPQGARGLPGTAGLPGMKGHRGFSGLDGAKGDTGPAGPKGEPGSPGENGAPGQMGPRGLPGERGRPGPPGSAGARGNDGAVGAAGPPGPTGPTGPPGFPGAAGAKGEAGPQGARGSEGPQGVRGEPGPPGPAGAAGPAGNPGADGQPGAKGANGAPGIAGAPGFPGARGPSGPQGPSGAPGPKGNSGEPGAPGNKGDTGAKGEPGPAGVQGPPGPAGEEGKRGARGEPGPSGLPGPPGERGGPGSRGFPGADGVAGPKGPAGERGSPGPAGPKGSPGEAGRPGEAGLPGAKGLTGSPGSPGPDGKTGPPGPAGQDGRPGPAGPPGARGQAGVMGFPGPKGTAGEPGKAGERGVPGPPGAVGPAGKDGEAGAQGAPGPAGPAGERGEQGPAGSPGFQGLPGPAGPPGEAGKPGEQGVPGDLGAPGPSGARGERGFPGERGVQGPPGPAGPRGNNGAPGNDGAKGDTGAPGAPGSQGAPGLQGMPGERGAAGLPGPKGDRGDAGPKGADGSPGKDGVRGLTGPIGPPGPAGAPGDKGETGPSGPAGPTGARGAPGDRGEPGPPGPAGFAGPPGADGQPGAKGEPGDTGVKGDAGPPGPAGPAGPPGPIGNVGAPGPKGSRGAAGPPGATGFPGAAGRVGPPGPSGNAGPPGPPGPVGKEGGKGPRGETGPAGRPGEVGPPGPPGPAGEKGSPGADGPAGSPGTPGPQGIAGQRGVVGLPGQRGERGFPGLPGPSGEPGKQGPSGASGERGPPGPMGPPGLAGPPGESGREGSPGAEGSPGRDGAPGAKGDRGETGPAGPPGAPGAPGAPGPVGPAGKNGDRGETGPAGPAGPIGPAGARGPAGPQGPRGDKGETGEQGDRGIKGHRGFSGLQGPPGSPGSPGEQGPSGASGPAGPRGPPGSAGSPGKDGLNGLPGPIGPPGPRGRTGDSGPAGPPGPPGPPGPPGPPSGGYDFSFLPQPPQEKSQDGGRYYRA
T1 sequence (P02466 86-1125, chain 2 of 2): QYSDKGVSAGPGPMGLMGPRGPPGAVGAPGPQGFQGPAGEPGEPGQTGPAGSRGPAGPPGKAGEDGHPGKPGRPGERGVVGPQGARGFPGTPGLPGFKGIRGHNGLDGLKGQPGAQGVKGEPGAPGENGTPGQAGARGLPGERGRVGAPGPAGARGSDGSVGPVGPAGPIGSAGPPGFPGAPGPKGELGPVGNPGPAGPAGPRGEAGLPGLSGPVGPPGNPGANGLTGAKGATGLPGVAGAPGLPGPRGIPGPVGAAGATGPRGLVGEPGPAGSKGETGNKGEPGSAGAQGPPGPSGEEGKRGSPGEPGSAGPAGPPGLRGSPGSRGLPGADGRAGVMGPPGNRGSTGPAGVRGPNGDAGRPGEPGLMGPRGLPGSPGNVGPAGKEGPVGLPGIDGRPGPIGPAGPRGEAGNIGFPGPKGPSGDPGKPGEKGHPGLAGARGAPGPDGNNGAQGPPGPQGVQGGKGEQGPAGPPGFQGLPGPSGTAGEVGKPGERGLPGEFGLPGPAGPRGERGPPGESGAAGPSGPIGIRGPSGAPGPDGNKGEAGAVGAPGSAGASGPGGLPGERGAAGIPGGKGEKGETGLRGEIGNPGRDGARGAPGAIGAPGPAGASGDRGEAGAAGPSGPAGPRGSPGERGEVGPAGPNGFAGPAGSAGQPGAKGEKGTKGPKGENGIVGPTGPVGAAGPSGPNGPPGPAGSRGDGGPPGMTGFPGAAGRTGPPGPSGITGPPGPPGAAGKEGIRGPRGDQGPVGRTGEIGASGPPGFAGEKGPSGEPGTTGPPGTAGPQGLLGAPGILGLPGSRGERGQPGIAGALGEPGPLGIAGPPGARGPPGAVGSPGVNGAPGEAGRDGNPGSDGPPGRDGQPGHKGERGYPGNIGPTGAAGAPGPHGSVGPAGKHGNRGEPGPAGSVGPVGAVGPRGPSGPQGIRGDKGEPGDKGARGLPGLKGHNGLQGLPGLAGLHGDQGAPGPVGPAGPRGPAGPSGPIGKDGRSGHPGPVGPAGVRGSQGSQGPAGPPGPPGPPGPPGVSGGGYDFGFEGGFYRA

[1] = target: Collagen I (Gibco), coated on 96-well plates (UniProt P02454 152-1207; P02466 86-1125); assay: ELISA
Sequence of Collagen I (Gibco), coated on 96-well plates (P02454 152-1207, chain 1 of 2): as the sequence (P02454 152-1207, chain 1 of 2) above
Sequence of Collagen I (Gibco), coated on 96-well plates (P02466 86-1125, chain 2 of 2): as the sequence (P02466 86-1125, chain 2 of 2) above

Molecule: LAIR-MSA (from UniProt P07724 25-608)
- Kd (collagen type I): 17 nM

B1: LAIRx-LAIRx-MSA^H464Q-his (other)
chain: QEGSLPDITIFPNSSLMISQGTFVTVVCSYSDKHDLYNMVALAKDGSTFMEKSTEPYKTEDEFEIGPVNETITGHYSCIYSKGITWSERSKTLELKVIKENVIQTPAPGPTSDTSWLKTYSIYQEGSLPDITIFPNSSLMISQGTFVTVVCSYSDKHDLYNMVALAKDGSTFMEKSTEPYKTEDEFEIGPVNETITGHYSCIYSKGITWSERSKTLELKVIKENVIQTPAPGPTSDTSWLKTYSIYEAHKSEIAHRYNDLGEQHFKGLVLIAFSQYLQKCSYDEHAKLVQEVTDFAKTCVADESAANCDKSLHTLFGDKLCAIPNLRENYGELADCCTKQEPERNECFLQHKDDNPSLPPFERPEAEAMCTSFKENPTTFMGHYLHEVARRHPYFYAPELLYYAEQYNEILTQCCAEADKESCLTPKLDGVKEKALVSSVRQRMKCSSMQKFGERAFKAWAVARLSQTFPNADFAEITKLATDLTKVNKECCHGDLLECADDRAELAKYMCENQATISSKLQTCCDKPLLKKAHCLSEVEHDTMPADLPAIAADFVEDQEVCKNYAEAKDVFLGTFLYEYSRRHPDYSVSLLLRLAKKYEATLEKCCAEANPPACYGTVLAEFQPLVEEPKNLVKTNCDLYEKLGEYGFQNAILVRYTQKAPQVSTPTLVEAARNLGRVGTKCCTLPEDQRLPCVEDYLSAILNRVCLLQEKTPVSEHVTKCCSGSLVERRPCFSALTVDETYVPKEFKAETFTFHSDICTLPEKEKQIKKQTALAELVKHKPKATAEQLKTVMDDFAQFLDTCCKAADKDTCFSTEGPNLVTRCKDALA
- Kd [1]: > 1000 nM

B2: LAIRx-his (domain or fragment)
chain: QEGSLPDITIFPNSSLMISQGTFVTVVCSYSDKHDLYNMVALAKDGSTFMEKSTEPYKTEDEFEIGPVNETITGHYSCIYSKGITWSERSKTLELKVIKENVIQTPAPGPTSDTSWLKTYSIY
- Kd [1]: > 1000 nM

B3: LAIR-his (domain or fragment)
chain: QEGSLPDITIFPNSSLMISQGTFVTVVCSYSDKHDLYNMVRLEKDGSTFMEKSTEPYKTEDEFEIGPVNETITGHYSCIYSKGITWSERSKTLELKVIKENVIQTPAPGPTSDTSWLKTYSIY
- Kd [1]: 102 nM

B4: LAIR30.w.A V27A,D45G-MSA (other)
chain: QEGSLPDITIFPNSSLMISQGTFVTVACSYSDKHDLYNMVRLEKGGSTFMEKSTEPYKTEDEFEIGPVNETITGHYSCIYSKGITWSERSKTLELKVIKENVIQTPAPGPTSDTSWLKTYSIYEAHKSEIAHRYNDLGEQHFKGLVLIAFSQYLQKCSYDEHAKLVQEVTDFAKTCVADESAANCDKSLHTLFGDKLCAIPNLRENYGELADCCTKQEPERNECFLQHKDDNPSLPPFERPEAEAMCTSFKENPTTFMGHYLHEVARRHPYFYAPELLYYAEQYNEILTQCCAEADKESCLTPKLDGVKEKALVSSVRQRMKCSSMQKFGERAFKAWAVARLSQTFPNADFAEITKLATDLTKVNKECCHGDLLECADDRAELAKYMCENQATISSKLQTCCDKPLLKKAHCLSEVEHDTMPADLPAIAADFVEDQEVCKNYAEAKDVFLGTFLYEYSRRHPDYSVSLLLRLAKKYEATLEKCCAEANPPACYGTVLAEFQPLVEEPKNLVKTNCDLYEKLGEYGFQNAILVRYTQKAPQVSTPTLVEAARNLGRVGTKCCTLPEDQRLPCVEDYLSAILNRVCLLHEKTPVSEHVTKCCSGSLVERRPCFSALTVDETYVPKEFKAETFTFHSDICTLPEKEKQIKKQTALAELVKHKPKATAEQLKTVMDDFAQFLDTCCKAADKDTCFSTEGPNLVTRCKDALA
- Kd (collagen type I; both partners purified): 120 nM

B5: LAIR30.w.E F63L-MSA (other)
chain: QEGSLPDITIFPNSSLMISQGTFVTVVCSYSDKHDLYNMVRLEKDGSTFMEKSTEPYKTEDELEIGPVNETITGHYSCIYSKGITWSERSKTLELKVIKENVIQTPAPGPTSDTSWLKTYSIYEAHKSEIAHRYNDLGEQHFKGLVLIAFSQYLQKCSYDEHAKLVQEVTDFAKTCVADESAANCDKSLHTLFGDKLCAIPNLRENYGELADCCTKQEPERNECFLQHKDDNPSLPPFERPEAEAMCTSFKENPTTFMGHYLHEVARRHPYFYAPELLYYAEQYNEILTQCCAEADKESCLTPKLDGVKEKALVSSVRQRMKCSSMQKFGERAFKAWAVARLSQTFPNADFAEITKLATDLTKVNKECCHGDLLECADDRAELAKYMCENQATISSKLQTCCDKPLLKKAHCLSEVEHDTMPADLPAIAADFVEDQEVCKNYAEAKDVFLGTFLYEYSRRHPDYSVSLLLRLAKKYEATLEKCCAEANPPACYGTVLAEFQPLVEEPKNLVKTNCDLYEKLGEYGFQNAILVRYTQKAPQVSTPTLVEAARNLGRVGTKCCTLPEDQRLPCVEDYLSAILNRVCLLHEKTPVSEHVTKCCSGSLVERRPCFSALTVDETYVPKEFKAETFTFHSDICTLPEKEKQIKKQTALAELVKHKPKATAEQLKTVMDDFAQFLDTCCKAADKDTCFSTEGPNLVTRCKDALA
- Kd (collagen type I; both partners purified): 96 nM

B6: LAIR30.w.B F49S-MSA (other)
chain: QEGSLPDITIFPNSSLMISQGTFVTVVCSYSDKHDLYNMVRLEKDGSTSMEKSTEPYKTEDEFEIGPVNETITGHYSCIYSKGITWSERSKTLELKVIKENVIQTPAPGPTSDTSWLKTYSIYEAHKSEIAHRYNDLGEQHFKGLVLIAFSQYLQKCSYDEHAKLVQEVTDFAKTCVADESAANCDKSLHTLFGDKLCAIPNLRENYGELADCCTKQEPERNECFLQHKDDNPSLPPFERPEAEAMCTSFKENPTTFMGHYLHEVARRHPYFYAPELLYYAEQYNEILTQCCAEADKESCLTPKLDGVKEKALVSSVRQRMKCSSMQKFGERAFKAWAVARLSQTFPNADFAEITKLATDLTKVNKECCHGDLLECADDRAELAKYMCENQATISSKLQTCCDKPLLKKAHCLSEVEHDTMPADLPAIAADFVEDQEVCKNYAEAKDVFLGTFLYEYSRRHPDYSVSLLLRLAKKYEATLEKCCAEANPPACYGTVLAEFQPLVEEPKNLVKTNCDLYEKLGEYGFQNAILVRYTQKAPQVSTPTLVEAARNLGRVGTKCCTLPEDQRLPCVEDYLSAILNRVCLLHEKTPVSEHVTKCCSGSLVERRPCFSALTVDETYVPKEFKAETFTFHSDICTLPEKEKQIKKQTALAELVKHKPKATAEQLKTVMDDFAQFLDTCCKAADKDTCFSTEGPNLVTRCKDALA
- Kd (collagen type I; both partners purified): 130 nM

B7: LAIR30.w.F S90A-MSA (other)
chain: QEGSLPDITIFPNSSLMISQGTFVTVVCSYSDKHDLYNMVRLEKDGSTFMEKSTEPYKTEDEFEIGPVNETITGHYSCIYSKGITWSERAKTLELKVIKENVIQTPAPGPTSDTSWLKTYSIYEAHKSEIAHRYNDLGEQHFKGLVLIAFSQYLQKCSYDEHAKLVQEVTDFAKTCVADESAANCDKSLHTLFGDKLCAIPNLRENYGELADCCTKQEPERNECFLQHKDDNPSLPPFERPEAEAMCTSFKENPTTFMGHYLHEVARRHPYFYAPELLYYAEQYNEILTQCCAEADKESCLTPKLDGVKEKALVSSVRQRMKCSSMQKFGERAFKAWAVARLSQTFPNADFAEITKLATDLTKVNKECCHGDLLECADDRAELAKYMCENQATISSKLQTCCDKPLLKKAHCLSEVEHDTMPADLPAIAADFVEDQEVCKNYAEAKDVFLGTFLYEYSRRHPDYSVSLLLRLAKKYEATLEKCCAEANPPACYGTVLAEFQPLVEEPKNLVKTNCDLYEKLGEYGFQNAILVRYTQKAPQVSTPTLVEAARNLGRVGTKCCTLPEDQRLPCVEDYLSAILNRVCLLHEKTPVSEHVTKCCSGSLVERRPCFSALTVDETYVPKEFKAETFTFHSDICTLPEKEKQIKKQTALAELVKHKPKATAEQLKTVMDDFAQFLDTCCKAADKDTCFSTEGPNLVTRCKDALA
- Kd (collagen type I; both partners purified): 63 nM

B8: LAIR30.d.D E43A-MSA (other)
chain: QEGSLPDITIFPNSSLMISQGTFVTVVCSYSDKHDLYNMVRLAKDGSTFMEKSTEPYKTEDEFEIGPVNETITGHYSCIYSKGITWSERSKTLELKVIKENVIQTPAPGPTSDTSWLKTYSIYEAHKSEIAHRYNDLGEQHFKGLVLIAFSQYLQKCSYDEHAKLVQEVTDFAKTCVADESAANCDKSLHTLFGDKLCAIPNLRENYGELADCCTKQEPERNECFLQHKDDNPSLPPFERPEAEAMCTSFKENPTTFMGHYLHEVARRHPYFYAPELLYYAEQYNEILTQCCAEADKESCLTPKLDGVKEKALVSSVRQRMKCSSMQKFGERAFKAWAVARLSQTFPNADFAEITKLATDLTKVNKECCHGDLLECADDRAELAKYMCENQATISSKLQTCCDKPLLKKAHCLSEVEHDTMPADLPAIAADFVEDQEVCKNYAEAKDVFLGTFLYEYSRRHPDYSVSLLLRLAKKYEATLEKCCAEANPPACYGTVLAEFQPLVEEPKNLVKTNCDLYEKLGEYGFQNAILVRYTQKAPQVSTPTLVEAARNLGRVGTKCCTLPEDQRLPCVEDYLSAILNRVCLLHEKTPVSEHVTKCCSGSLVERRPCFSALTVDETYVPKEFKAETFTFHSDICTLPEKEKQIKKQTALAELVKHKPKATAEQLKTVMDDFAQFLDTCCKAADKDTCFSTEGPNLVTRCKDALA
- Kd (collagen type I; both partners purified): 220 nM

B9: LAIR30.w.C E51G-MSA (other)
chain: QEGSLPDITIFPNSSLMISQGTFVTVVCSYSDKHDLYNMVRLEKDGSTFMGKSTEPYKTEDEFEIGPVNETITGHYSCIYSKGITWSERSKTLELKVIKENVIQTPAPGPTSDTSWLKTYSIYEAHKSEIAHRYNDLGEQHFKGLVLIAFSQYLQKCSYDEHAKLVQEVTDFAKTCVADESAANCDKSLHTLFGDKLCAIPNLRENYGELADCCTKQEPERNECFLQHKDDNPSLPPFERPEAEAMCTSFKENPTTFMGHYLHEVARRHPYFYAPELLYYAEQYNEILTQCCAEADKESCLTPKLDGVKEKALVSSVRQRMKCSSMQKFGERAFKAWAVARLSQTFPNADFAEITKLATDLTKVNKECCHGDLLECADDRAELAKYMCENQATISSKLQTCCDKPLLKKAHCLSEVEHDTMPADLPAIAADFVEDQEVCKNYAEAKDVFLGTFLYEYSRRHPDYSVSLLLRLAKKYEATLEKCCAEANPPACYGTVLAEFQPLVEEPKNLVKTNCDLYEKLGEYGFQNAILVRYTQKAPQVSTPTLVEAARNLGRVGTKCCTLPEDQRLPCVEDYLSAILNRVCLLHEKTPVSEHVTKCCSGSLVERRPCFSALTVDETYVPKEFKAETFTFHSDICTLPEKEKQIKKQTALAELVKHKPKATAEQLKTVMDDFAQFLDTCCKAADKDTCFSTEGPNLVTRCKDALA
- Kd (collagen type I; both partners purified): 170 nM
